Source: patent US20250163162A1 (SYNTHEKINE, published 2025)

Target: T1, IL10Rα/IL2Rγ receptor (human, UniProt Q13651 22-578; P31785 23-369)
T1 sequence (looked up) 1: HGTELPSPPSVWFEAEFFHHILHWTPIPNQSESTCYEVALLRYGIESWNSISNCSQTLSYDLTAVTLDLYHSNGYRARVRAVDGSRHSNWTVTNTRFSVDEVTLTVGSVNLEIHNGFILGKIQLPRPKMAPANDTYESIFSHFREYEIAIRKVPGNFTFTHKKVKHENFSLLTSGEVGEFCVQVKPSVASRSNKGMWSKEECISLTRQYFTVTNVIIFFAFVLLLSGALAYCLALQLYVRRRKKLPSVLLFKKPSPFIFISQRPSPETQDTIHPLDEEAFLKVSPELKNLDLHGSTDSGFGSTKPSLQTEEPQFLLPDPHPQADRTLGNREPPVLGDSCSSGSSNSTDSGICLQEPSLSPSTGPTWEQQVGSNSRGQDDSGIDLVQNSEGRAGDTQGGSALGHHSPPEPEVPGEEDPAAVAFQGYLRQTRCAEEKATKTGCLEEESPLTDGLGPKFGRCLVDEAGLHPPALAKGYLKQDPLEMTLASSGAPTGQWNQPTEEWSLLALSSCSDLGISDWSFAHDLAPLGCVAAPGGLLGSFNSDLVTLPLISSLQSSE
T1 sequence (looked up) 2: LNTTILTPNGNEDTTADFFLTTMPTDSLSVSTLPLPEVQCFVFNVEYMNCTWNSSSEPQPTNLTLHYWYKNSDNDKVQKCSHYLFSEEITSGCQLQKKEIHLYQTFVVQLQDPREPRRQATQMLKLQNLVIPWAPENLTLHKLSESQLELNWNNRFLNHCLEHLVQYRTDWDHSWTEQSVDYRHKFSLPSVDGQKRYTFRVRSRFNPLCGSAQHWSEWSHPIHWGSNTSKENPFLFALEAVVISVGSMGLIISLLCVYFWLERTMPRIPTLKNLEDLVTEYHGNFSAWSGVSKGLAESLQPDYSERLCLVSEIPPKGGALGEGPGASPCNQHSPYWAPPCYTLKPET
Test: cell-based or functional assay

Row | Binder | pSTAT3 MFI, B cells, 100 nM (unstimulated 1045) | pSTAT3 MFI, CD4+ T cells, 100 nM (unstimulated 1778) | pSTAT3 MFI, CD8+ T cells, 100 nM (unstimulated 1288) | pSTAT3 MFI, Monocytes, 100 nM (unstimulated 1787) | pSTAT3 MFI, NK cells, 100 nM (unstimulated 1149)
1 | DR474(DR241-DR234) (bispecific antibody) QVQLQESGGGSVQAGGSLRLSCAASGYSNCSYDMTWYRQAPGKEREFVSAIHSDGSTRYADSVKGRFFISQDNAKNTVYLQMNSLKPEDTAMYYCKTDPLHCRAHGGSWYSVRANYWGQGTQVTVSSGGGSQVQLQESGGGSVQAGGSLRLSCVASGYTFSSYCMGWFRQAPGKEREGVAALGGGSTYYADSVKGRFTISQDNAKNTLYLQMNSLKPEDTAMYYCAAAWVACLEFGGSWYDLARYKHWGQGTQVTVSSASHHHHHH | 1030 MFI | 3770 MFI | 2460 MFI | 2320 MFI | 1230 MFI
2 | DR438(DR235-DR234) (bispecific antibody) QVQLQESGGGSVQAGGSLRLSCAASRYLYSIDYMAWFRQSPGKEREPVAVIYTASGATFYPDSVKGRFTISQDNAKMTVYLQMNSLKSEDTAMYYCAAVRKTDSYLFDAQSFTYWGQGTQVTVSSGGGSQVQLQESGGGSVQAGGSLRLSCVASGYTFSSYCMGWFRQAPGKEREGVAALGGGSTYYADSVKGRFTISQDNAKNTLYLQMNSLKPEDTAMYYCAAAWVACLEFGGSWYDLARYKHWGQGTQVTVSSASHHHHHH | 1050 MFI | 2780 MFI | 1830 MFI | 1810 MFI | 1170 MFI
3 | DR392(DR229-DR236) (bispecific antibody) QVQLQESGGGLVQPGGSLRLSCTASGFSFSSYPMTWARQAPGKGLEWVSTIASDGGSTAYAASVEGRFTISRDNAKSTLYLQLNSLKTEDTAMYYCTKGYGDGTPAPGQGTQVTVSSGGGSQVQLQESGGGSVQAGGSLRLSCAASRFTYSSYCMGWFRQAPGKEREGVASIDSDGSTSYTDSVKGRFTISKDNAKNTLYLQMNSLKPEDTAMYYCALDLMSTVVPGFCGFLLSAGMDYWGKGTQVTVSSASHHHHHH | 1060 MFI | 3340 MFI | 2390 MFI | 1890 MFI | 1280 MFI

Second part, the binder after the results:

Row | pSTAT3 MFI, B cells, 100 nM (unstimulated 1045) | pSTAT3 MFI, CD4+ T cells, 100 nM (unstimulated 1778) | pSTAT3 MFI, CD8+ T cells, 100 nM (unstimulated 1288) | pSTAT3 MFI, Monocytes, 100 nM (unstimulated 1787) | pSTAT3 MFI, NK cells, 100 nM (unstimulated 1149) | Binder
4 | 1100 MFI | 3170 MFI | 2310 MFI | 1870 MFI | 1280 MFI | DR466(DR240-DR232) (bispecific antibody) QVQLQESGGGSVQAGGSLRLSCGASGYTYSSYCMGWFRQVPGKEREGVAVIDSDGSTSYADSVKGRFTISKDNGKNTLYLQMNSLKPEDTAMYYCAADLGHYRPPCGVLYLGMDYWGKGTQVTVSSGGGSQVQLQESGGGSVQAGGSLRLSCVASGYTSCMGWFRQAPGKEREAVATIYTRGRSIYYADSVKGRFTISQDNAKNTLYLQMNSLKPEDIAMYSCAAGGYSWSAGCEFNYWGQGTQVTVSSASHHHHHH
5 | 1090 MFI | 2700 MFI | 1880 MFI | 1880 MFI | 1250 MFI | DR449(DR237-DR233) (bispecific antibody) QVQLQESGGGSVQAGGSLRLSCAASGYTYSMYCMGWFRQAPGKEREGVAQINSDGSTSYADSVKGRFTISKDNAKNTLYLQMNSLKPEDTAMYYCAADSRVYGGSWYERLCGPYTYEYNYWGQGTQVTVSSGGGSQVQLQESGGGSVQAGGSLRLSCTASGFTFDDSDMGWYRQAPGNECELVSTISSDGSTYYADSVKGRFTISQDNAKNTVYLQMNSLKPEDTAVYYCAAEPRGYYSNYGGRRECNYWGQGTQVTVSSASHHHHHH
